Test results as given in US11912789B2, “Peptide activating agent” (Interk Peptide Therapeutics Limited, priority 2018, dated 2024).
Non-standard residues stand in square brackets, D forms with d. Residues, ends and D or L forms follow the SMILES beside them. No end group written: not given here. ξ: configuration not given here. ξGly(decyl) = CCCCCCCCCCC(N)C(=O)O; 2Adod = 2-amino-dodecanoic acid

Assays:
Lck = molecular target: T1, Lck (Homo sapiens, UniProt P06239); experiment: In vitro Lck activation kinase study (Eurofins); assay type: biochemical
T1 construct: purchased Eurofins Pharma Discovery Services UK Limited
T1 sequence (P06239 whole entry): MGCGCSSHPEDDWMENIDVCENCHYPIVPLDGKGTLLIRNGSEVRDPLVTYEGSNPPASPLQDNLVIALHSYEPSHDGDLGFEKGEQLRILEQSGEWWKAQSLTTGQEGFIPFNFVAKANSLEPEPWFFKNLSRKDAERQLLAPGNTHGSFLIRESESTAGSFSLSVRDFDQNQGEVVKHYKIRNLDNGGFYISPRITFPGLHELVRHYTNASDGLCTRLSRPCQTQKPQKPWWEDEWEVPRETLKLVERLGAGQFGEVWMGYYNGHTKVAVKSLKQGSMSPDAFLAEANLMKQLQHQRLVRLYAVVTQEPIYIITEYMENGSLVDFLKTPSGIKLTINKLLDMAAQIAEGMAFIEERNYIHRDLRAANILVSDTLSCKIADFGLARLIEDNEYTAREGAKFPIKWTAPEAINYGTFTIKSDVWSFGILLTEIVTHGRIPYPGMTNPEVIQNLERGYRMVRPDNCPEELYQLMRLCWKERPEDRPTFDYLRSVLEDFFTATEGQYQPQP
Description: (§1) The ability of polypeptides of the present invention to activate Lck was examined in vitro. Lck is member of the Src family of tyrosine kinases. In vitro Lck activation kinase studies were conducted by Eurofins Pharma Discovery Services UK Limited (Dundee Technology Park, Dundee, United Kingdom) using ATP concentrations within 15 μM of the apparent Km in the presence of peptide substrate (KVEKIGEGTYGVVYK; (SEQ ID NO: 63)) and test polypeptide in semi-log dose ranges. All results in Examples X percentage Lck activity relative to control (100%).
(§2) The ability of polypeptides of the present invention to activate Src family kinases was examined in vitro. Lck activation studies were carried out as described above and all Lck activity values are shown as percentage relative to control. In brief, Table 4 and Table 5 illustrate the selective activation of Lck kinase amongst the Src family kinases in the presence of the peptide RSKAKNPLY at 10 μM concentration.
The effect of modification of cationic amino acid positions and substitutions of the peptide RSKAKNPLY was examined. In brief, peptides with amino acid sequence changes compared to the peptide Pep9 (RSKAKNPLY) were assessed for the ability to stimulate Lck activity. All results are shown as percentage relative to control (100%).
Lck activity was evaluated as described in Example 1 and all Lck activity values are shown as percentage relative to control (100%). For ease of description, the polyamide moiety is referred to by “nCy” wherein n is the number of repeating units of the polyamide moiety, Cy is the number of carbon atoms of the R group in each repeating unit, and each R group is a saturated, linear carbon chain. Thus, in the present example, “4C10” is to be taken to refer to a polyamide moiety as shown in Scheme 1 above which has 4 repeating units (n=4) in which the R group of each repeating unit is a saturated, carbon side chain that is 10 carbon atoms in length (e.g. four 2-amino dodecanoic acids).

wild-type Jurkat cells = experiment: IL-2, IL-12 secretion and IL-2Ra expression in Jurkat cells (anti-CD3/anti-CD28), ELISA; assay type: cell-based, human; conditions: 48 hours; for IL-2 secretion: Biotin-CD3, CD28 and avidin stimulation, supernatant ELISA, FIG. 14, FIG. 42A; for IL-12 secretion: Biotin-anti-CD3, anti-CD28 and avidin, FIG. 42B
Description: Cells were seeded at 1 million per well (12 well plate, 2 mL volume) and stimulated with Biotin-CD3, CD28, and avidin (5:5:1.25 μg). The cells were then treated with RSKAKNPLYR-(2Adod)4-NH2 at three concentrations as indicated plus vehicle control. The samples were then incubated for 48 hours at 37° C. after which supernatants were analysed for IL-2 content by ELISA.
Shown are Jurkat wild type (WT) cells and Lck deficient Jurkat cells (JCaM1.6) stimulated with anti-CD3/anti-CD28. 12 well plates were coated with anti-CD3 (5 μg/mL) solution made up in PBS (200 μL) and incubated at 37° C. overnight. The next day the anti-CD3 solution was aspirated and wells gently washed twice with media (1 mL, 10 minutes). Jurkat cells (WT and Lck Deficient) were seeded at 1 million per well in anti-CD3 coated 12 well plates, further stimulated with anti-CD28 (5 ug/mL) and at time zero treated with RSKAKNPLYR-(2Adod)4-NH2 (2.5 μM). Cells were incubated for 72 hours. For the IL-2 assay, left, supernatants were analysed for IL-2 content by ELISA. For the IL-2Ra assay, right, cells were lysed with 100 μL of lysis solution containing protease and phosphatase inhibitors as well as PP2 (10 μM). The collected cell lysates were subjected to the BCA protein assay. Cell lysates (40 μg protein) were then analysed for IL-2Ra by ELISA.
In two separate experiments, 5 million unstimulated JCam1.6 (Lck deficient) and 5 million 6.1 (WT) Jurkat cells, respectively, were seeded in T25 flasks. The cells were treated with RSKAKNPLYR-(2Adod)4-NH2 at 5 μM, 10 μM and 20 μM concentrations for 1 hour after which the cell suspensions were centrifuged and washed twice with fresh media. For each experiment, a mixture of Biotin-anti-CD3 and Avidin (5:1.25 ug) in 500 μL of media was added to the wells of a 12 well plate. After 10 minutes the unstimulated, washed cells were seeded at 1 million cells per well and the cell suspension made up to 2 mL volume with media. The samples were then further stimulated with anti-CD28 (5 ug/mL), after which the samples were incubated for 48 hours at 37° C. The supernatants (100 μL, n=3), were then analyzed for IL-2 content.
12 well plates were coated with anti-CD3 (5 μg/mL) solution made up in PBS (200 μL) and incubated at 37° C. overnight. […] Cells were incubated for 24 hours and supernatants were then analysed for IL-2 by ELISA.
12 well plates were coated with anti-CD3 (5 μg/mL) solution made up in PBS (200 μL) and incubated at 37° C. overnight. […] Cell lysates (40 μg protein) were then analysed for IL-2Ra by ELISA.
12 well plates were coated with anti-CD3 (5 μg/mL) solution made up in PBS (200 μL) and incubated at 37° C. overnight. […] Cells were incubated for 72 hours and the supernatants were then analysed for IL-2 by ELISA. […]

Lck(h) = molecular target: T2, Lck(h) (Homo sapiens, UniProt P06239); experiment: Western blot of Lck auto-phosphorylation at Y394 (anti-pY394 Lck); assay type: biochemical; conditions: 10 μM and 30 μM; ATP, no peptide substrate; FIG. 2
T2 construct: purchased Eurofins Pharma Discovery Services UK Limited
T2 sequence (P06239 whole entry): as above
Description: Western blot studies were performed by Eurofins Pharma Discovery Services UK Limited (Dundee, United Kingdom). In brief, Lck(h) was incubated in the presence of test peptide employing standard KinaseProfiler™ reaction conditions (Eurofins Pharma Discovery Services UK Limited) and an ATP concentration within 15 μM of the Km. Reactions were allowed to proceed for 40 minutes at room temperature before being stopped by the addition of SDS-sample buffer. In each case the Lck enzyme was diluted to yield 20 ng per 25 μl reaction. Appropriate controls in the absence of compound and peptide were also run as well as an untreated sample of both the Lck(h) and Lck(h) activated kinases. The resulting samples were then subjected to SDS-PAGE and western blot analysis using the antibodies 4G10 (anti-phospho-tyrosine antibody) (see FIG. 3) and anti-pY394 Lck (R&D Systems MAB7500) (see FIG. 2). An additional blot using the secondary detection antibody (anti-mouse-HRP) was also performed. The membranes were stained by Ponceau S to verify sample loading and effective protein transfer. The 4G10 antibody is a general anti-phospho-tyrosine antibody and there are several tyrosine residues in Lck but only one auto-phosphorylating tyrosine residue, i.e., at position Y394. […] Samples were as follows (numbers correspond to the lanes on the gel): • 1. Molecular weight markers • 2. […]

Yes = molecular target: T3, Yes (Homo sapiens, UniProt P07947); experiment: In vitro Src family kinase activation study (Eurofins); assay type: biochemical; conditions: Table 5
T3 construct: purchased Eurofins Pharma Discovery Services UK Limited
T3 sequence (P07947 whole entry, species assumed): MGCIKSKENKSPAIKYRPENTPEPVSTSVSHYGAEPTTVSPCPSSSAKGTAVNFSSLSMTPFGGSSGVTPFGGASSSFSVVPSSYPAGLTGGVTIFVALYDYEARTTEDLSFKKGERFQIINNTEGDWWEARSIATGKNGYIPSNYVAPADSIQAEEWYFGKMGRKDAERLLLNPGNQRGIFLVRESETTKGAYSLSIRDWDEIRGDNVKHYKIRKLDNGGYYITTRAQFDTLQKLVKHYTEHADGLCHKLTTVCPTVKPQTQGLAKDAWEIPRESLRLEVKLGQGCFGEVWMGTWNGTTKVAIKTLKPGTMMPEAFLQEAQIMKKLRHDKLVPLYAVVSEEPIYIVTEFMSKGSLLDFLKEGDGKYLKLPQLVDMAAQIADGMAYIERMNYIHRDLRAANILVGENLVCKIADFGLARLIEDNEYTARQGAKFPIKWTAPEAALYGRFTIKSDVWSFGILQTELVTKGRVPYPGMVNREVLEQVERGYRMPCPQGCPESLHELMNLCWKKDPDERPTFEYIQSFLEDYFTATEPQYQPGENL
Description: as §1, §2

Lyn = molecular target: T4, Lyn (Homo sapiens, UniProt P07948); experiment: as above; assay type: biochemical; conditions: Table 5
T4 construct: purchased Eurofins Pharma Discovery Services UK Limited
T4 sequence (P07948 whole entry, species assumed): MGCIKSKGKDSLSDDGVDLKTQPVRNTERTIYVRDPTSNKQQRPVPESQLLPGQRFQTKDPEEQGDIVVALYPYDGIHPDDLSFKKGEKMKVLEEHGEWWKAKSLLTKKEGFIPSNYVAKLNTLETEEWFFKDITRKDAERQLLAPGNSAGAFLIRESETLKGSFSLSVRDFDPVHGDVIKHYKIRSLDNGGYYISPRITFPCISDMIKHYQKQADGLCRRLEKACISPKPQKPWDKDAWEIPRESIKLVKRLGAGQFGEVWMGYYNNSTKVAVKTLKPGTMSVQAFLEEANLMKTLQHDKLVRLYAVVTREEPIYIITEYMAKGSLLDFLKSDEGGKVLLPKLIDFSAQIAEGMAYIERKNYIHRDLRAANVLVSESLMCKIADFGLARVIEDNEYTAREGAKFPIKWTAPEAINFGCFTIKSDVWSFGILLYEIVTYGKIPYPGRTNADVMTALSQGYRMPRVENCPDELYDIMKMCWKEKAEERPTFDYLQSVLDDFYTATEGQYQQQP
Description: as §1, §2

Fgr = molecular target: T5, Fgr (Homo sapiens, UniProt P09769); experiment: as above; assay type: biochemical; conditions: Table 5
T5 construct: purchased Eurofins Pharma Discovery Services UK Limited
Description: as §1, §2

cSRC = molecular target: T6, cSRC (Homo sapiens, UniProt P12931); experiment: as above; assay type: biochemical; conditions: Table 5
T6 construct: purchased Eurofins Pharma Discovery Services UK Limited
Description: as §1, §2

Fyn = molecular target: T7, Fyn (Homo sapiens, UniProt P06241); experiment: as above; assay type: biochemical; conditions: Table 5
T7 construct: purchased Eurofins Pharma Discovery Services UK Limited
T7 sequence (P06241 whole entry, species assumed): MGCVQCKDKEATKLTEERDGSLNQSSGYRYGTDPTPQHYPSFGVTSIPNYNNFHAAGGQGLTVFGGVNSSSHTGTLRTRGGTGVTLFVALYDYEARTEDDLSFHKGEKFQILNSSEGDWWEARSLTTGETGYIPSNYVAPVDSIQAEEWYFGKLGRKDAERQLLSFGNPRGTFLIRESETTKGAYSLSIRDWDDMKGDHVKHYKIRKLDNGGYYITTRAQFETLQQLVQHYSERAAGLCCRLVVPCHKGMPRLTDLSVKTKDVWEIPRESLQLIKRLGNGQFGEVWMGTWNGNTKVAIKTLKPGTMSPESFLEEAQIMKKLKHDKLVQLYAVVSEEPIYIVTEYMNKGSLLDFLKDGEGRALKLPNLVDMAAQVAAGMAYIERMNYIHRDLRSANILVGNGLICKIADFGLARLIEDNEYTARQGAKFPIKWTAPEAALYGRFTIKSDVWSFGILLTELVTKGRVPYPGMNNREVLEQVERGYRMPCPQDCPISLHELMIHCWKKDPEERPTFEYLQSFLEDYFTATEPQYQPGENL
Description: as §1, §2

Blk = molecular target: T8, Blk (Homo sapiens, UniProt P51451); experiment: as above; assay type: biochemical; conditions: Table 5
T8 construct: purchased Eurofins Pharma Discovery Services UK Limited
T8 sequence (P51451 whole entry, species assumed): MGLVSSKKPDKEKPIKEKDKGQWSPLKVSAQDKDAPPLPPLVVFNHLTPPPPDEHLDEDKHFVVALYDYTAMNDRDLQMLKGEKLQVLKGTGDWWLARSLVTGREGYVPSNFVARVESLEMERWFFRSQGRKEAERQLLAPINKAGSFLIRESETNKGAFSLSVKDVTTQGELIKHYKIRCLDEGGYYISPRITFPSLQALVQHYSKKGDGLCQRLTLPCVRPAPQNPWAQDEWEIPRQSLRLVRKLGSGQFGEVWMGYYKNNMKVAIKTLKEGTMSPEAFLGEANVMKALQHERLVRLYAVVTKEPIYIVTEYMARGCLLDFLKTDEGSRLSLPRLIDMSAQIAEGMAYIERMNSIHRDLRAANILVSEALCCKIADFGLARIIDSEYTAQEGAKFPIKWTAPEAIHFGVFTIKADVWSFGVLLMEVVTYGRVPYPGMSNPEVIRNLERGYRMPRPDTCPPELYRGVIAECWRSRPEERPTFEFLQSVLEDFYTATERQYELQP
Description: as §1, §2

Hck = molecular target: T9, Hck (Homo sapiens, UniProt P08631); experiment: as above; assay type: biochemical; conditions: Table 5
T9 construct: purchased Eurofins Pharma Discovery Services UK Limited
T9 sequence (P08631 whole entry, species assumed): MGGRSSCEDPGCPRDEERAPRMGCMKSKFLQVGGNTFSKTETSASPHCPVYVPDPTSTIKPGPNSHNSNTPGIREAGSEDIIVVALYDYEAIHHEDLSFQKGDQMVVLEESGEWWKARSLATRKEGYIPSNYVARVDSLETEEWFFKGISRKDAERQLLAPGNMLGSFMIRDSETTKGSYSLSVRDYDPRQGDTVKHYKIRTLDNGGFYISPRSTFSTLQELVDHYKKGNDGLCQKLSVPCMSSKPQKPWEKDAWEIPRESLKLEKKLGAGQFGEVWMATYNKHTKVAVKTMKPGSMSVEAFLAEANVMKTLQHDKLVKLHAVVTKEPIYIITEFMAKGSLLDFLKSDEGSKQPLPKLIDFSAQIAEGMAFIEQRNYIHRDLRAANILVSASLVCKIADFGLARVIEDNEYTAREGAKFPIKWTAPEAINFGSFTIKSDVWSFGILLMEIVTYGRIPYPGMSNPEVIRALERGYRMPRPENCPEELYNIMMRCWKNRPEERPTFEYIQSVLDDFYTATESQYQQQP
Description: as §1
The ability of polypeptides of the present invention to activate Src family kinases was examined in vitro. Lck activation studies were carried out as described above and all Lck activity values are shown as percentage relative to control. […]

CCCCCCCCCCC(N)C(=O)O (stereo not drawn) [H-(2Adod)1-OH]
Lck activation above control (1 μM) (Lck; Table 7): 0%
Lck activation above control (10 μM) (Lck; 10 μM, Table 7): 0%

CCCCCCCCCCC(N)C(=O)NC(CCCCCCCCCC)C(=O)O (stereo not drawn) [H-(2Adod)2-OH]
Lck activation above control (1 μM) (Lck; Table 7): 0%
Lck activation above control (10 μM) (Lck; 10 μM, Table 7): 18%

CCCCCCCCCCC(N)C(=O)NC(CCCCCCCCCC)C(=O)NC(CCCCCCCCCC)C(=O)O (stereo not drawn) [H-(2Adod)3-OH]
Lck activation above control (1 μM) (Lck; Table 7): 0%
Lck activation above control (10 μM) (Lck; 10 μM, Table 7): 0%

CCCCCCCCCCC(N)C(=O)NC(CCCCCCCCCC)C(=O)NC(CCCCCCCCCC)C(=O)NC(CCCCCCCCCC)C(=O)O (stereo not drawn) [H-(2Adod)4-OH] (H-[ξGly(decyl)][ξGly(decyl)][ξGly(decyl)][ξGly(decyl)]-OH)
Lck activation above control (1 μM) (Lck; Table 7): 0%
Lck activation above control (10 μM) (Lck; 10 μM, Table 7): 0%

DSEAENPLYD-(2Adod)4-NH2 (DSEAENPLYD-{2Adod-2Adod-2Adod-2Adod-NH2}) [DSEAENPLYD-(2-Adod)4-NH2, anionic residues at 1, 3, 5, 10 in place of Arg and Lys]
Lck activation (FIG. 30) (Lck; cationic versus anionic residues): does not increase the activity of Lck

RSKAKNPLY
IL-2 secretion (wild-type Jurkat cells): increase IL-2 secretion
IL-12 secretion (wild-type Jurkat cells): increase IL-12 secretion
auto-phosphorylation of Lck at Y394 (Lck(h)): induces a dose-dependent auto-phosphorylation of Lck

RSKAKNPLYR
IL-2 secretion (wild-type Jurkat cells): increase IL-2 secretion
IL-12 secretion (wild-type Jurkat cells): not
auto-phosphorylation of Lck at Y394 (Lck(h)): does not increase

RSKAKNPLYR-1C10-OH (RSKAKNPLYR-{2Adod-OH}) [… coupled at the C-terminal end toone 2-amino dodecanoic acid residue]
Lck Activity 10 μM (Lck; 10 μM, Table 8): 221%
Lck Activity 30 μM (Lck; 30 μM, Table 8): 277%

RSKAKNPLYR-(2Adod)4-OH (RSKAKNPLYR-{2Adod-2Adod-2Adod-2Adod-OH}) [… coupled to four 2-amino dodecanoic acid residues, non-amidated]
Lck activation above control (1 μM) (Lck; Table 9): 252%
Lck activation above control (10 μM) (Lck; 10 μM, Table 9): 395%

RVKVKVVVV
Lck Activity (1 μM), kinase Yes (Yes; 1 μM): 0%
Lck Activity (10 μM), kinase Yes (Yes; 10 μM): 0%
Lck Activity (1 μM), kinase Lyn (Lyn; 1 μM): 0%
Lck Activity (10 μM), kinase Lyn (Lyn; 10 μM): 0%
Lck Activity (1 μM), kinase Fgr (Fgr; 1 μM): 0%
Lck Activity (10 μM), kinase Fgr (Fgr; 10 μM): 0%
Lck Activity (1 μM), kinase c-Src (cSRC; 1 μM): 0%
Lck Activity (10 μM), kinase c-Src (cSRC; 10 μM): 0%
Lck Activity (1 μM), kinase Fyn (Fyn; 1 μM): 0%
Lck Activity (10 μM), kinase Fyn (Fyn; 10 μM): 0%
Lck Activity (1 μM), kinase Blk (Blk; 1 μM): 0%
Lck Activity (10 μM), kinase Blk (Blk; 10 μM): 0%
Lck Activity (1 μM), kinase Hck (Hck; 1 μM): 0%
Lck Activity (10 μM), kinase Hck (Hck; 10 μM): 0%
